Like-named read-outs stand apart in the source and are kept apart here. Non-standard residues stand in square brackets, D forms with d. No end group written: not given here. Lys(Me3) = C[N+](C)(C)CCCC[C@H](N)C(=O)O

Experiment in all cases: ITC
For test [1], the target named is TAF3 PHD domain M900Q/M907Q with norleucine in place of M882 (Nle mutant) (UniProt Q5VWG9).
In test [2] the target is TAF3 PHD domain M900Q/M907Q (the paper's wild-type construct) (UniProt Q5VWG9).
For test [3], the target named is TAF3 PHD domain M900Q/M907Q with selenomethionine in place of M882 (SeMet mutant) (UniProt Q5VWG9).
The target of test [4] is DIDO1 (death inducer obliterator 1) PHD domain, wild type.
In test [5] the target is BPTF PHD domain Y23M.
Test [6] deals with TAF3 PHD domain M900Q/M907Q with norleucine in place of M882 (Nle mutant) (UniProt Q5VWG9). The source holds these as a separate data set.
Test [7] addresses TAF3 PHD domain M900Q/M907Q (the paper's wild-type construct) (UniProt Q5VWG9). This is another data set of the same source.
Test [8] concerns the target BPTF PHD domain Y23M. This is another data set of the same source.
The target in test [9] is DIDO1 PHD domain with selenomethionine in place of methionine (SeMet mutant) (UniProt Q9BTC0).
Another test addresses DIDO1 PHD domain M35C (UniProt Q9BTC0).
Test [10] concerns the target TAF3 PHD domain M900Q/M907Q with selenomethionine in place of M882 (SeMet mutant) (UniProt Q5VWG9). This is another data set of the same source.
Another test has as its target TAF3 PHD domain M882A (UniProt Q5VWG9).
In test [11] the target is T1, DIDO1 (death inducer obliterator 1) PHD domain, wild type (UniProt Q9BTC0 266-325).
T1 sequence: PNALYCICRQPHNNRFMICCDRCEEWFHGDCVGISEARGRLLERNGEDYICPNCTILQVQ

Consider “histone H3 tail peptide with tert-butyl norleucine in place of K4me3 (H3K4tBuNle), ARTX… with X = tBuNle”, for which the Kd – broadly, the constant that tells how readily two partners part at equilibrium – worked out at 13.7 µM in test [1], 10.7 µM in [2] and 8.3 µM in [3].

Consider “Histone H3 peptide with tert-butyl norleucine in place of K4 (H3K4tBuNle 1-13, with a C-terminal Tyr)”, for which the Kd in [4] came to 2.9 µM; in the test with BPTF PHD domain Y23M [5] it was 7.48 µM.

As for ART[Lys(Me3)]QTARKSTGGY [histone H3 tail peptide trimethylated at K4 (H3K4me3), ARTX… with X = Kme3], the Kd in [6] amounted to 1.7 µM; in test [7] it was 1.05 µM; with BPTF PHD domain Y23M [8], 7.5 µM; in [9], 4.2 µM; with DIDO1 PHD domain M35C, 36 µM; in test [10], 0.84 µM. In the test with TAF3 PHD domain M882A, this molecule gave a Kd of 120 µM.

ART[Lys(Me3)]QTARKSTGGY [histone H3 tail peptide trimethylated at K4 (H3K4me3), ARTXQTARKSTGGY with X = Kme3]: the dissociation constant (Kd) in test [11] was 2.28 µM.

Source of the values: paper PMC8246079 (Chemical Science, 2021).
